# Columns and labels:
# HIV virus pAD-8 (HIV-1) = experiment: cell-based or functional assay
# HIV virus pNL4-3 (HIV-1) = experiment: cell-based or functional assay
Substance,"AD-8 RLU (TZMbl luciferase, neutralisation by supernatant) (HIV virus pAD-8 (HIV-1))","pNL4-3 RLU (TZMbl luciferase, neutralisation by supernatant) (HIV virus pNL4-3 (HIV-1))"
anti-HIV broad-spectrum neutralizing antibody 10E8V4-5R+100cF,976000 RLU,121000 RLU
anti-HIV broad-spectrum neutralizing antibody PGT128,147000 RLU,474000 RLU

# From patent US20240293576A1
